Data published in ChEMBL document CHEMBL1140886, “Development of an optimized activatable MMP-14 targeted SPECT imaging probe” (Bioorg Med Chem, 2009).

Tested on: CC[C@H](C)[C@H](NC(=O)[C@H](CCCNC(=N)N)NC(=O)CNC(=O)[C@@H](N)CO)C(=O)NCC(=O)N[C@@H](Cc1ccccc1)C(=O)N[C@@H](CC(C)C)C(=O)N[C@@H](CCCNC(=N)N)C(=O)N[C@H](C(=O)N[C@@H](C)C(=O)O)[C@@H](C)O
Test: Ratio of kcat/km for human recombinant MMP14 assessed as drug cleavage

Matrix metalloproteinase-14 (Homo sapiens) (from UniProt P50281)
kcat/Km: 777000 M⁻¹ s⁻¹
